# T1: CP190 (Drosophila, UniProt Q24478 1-1096)
# T1 sequence: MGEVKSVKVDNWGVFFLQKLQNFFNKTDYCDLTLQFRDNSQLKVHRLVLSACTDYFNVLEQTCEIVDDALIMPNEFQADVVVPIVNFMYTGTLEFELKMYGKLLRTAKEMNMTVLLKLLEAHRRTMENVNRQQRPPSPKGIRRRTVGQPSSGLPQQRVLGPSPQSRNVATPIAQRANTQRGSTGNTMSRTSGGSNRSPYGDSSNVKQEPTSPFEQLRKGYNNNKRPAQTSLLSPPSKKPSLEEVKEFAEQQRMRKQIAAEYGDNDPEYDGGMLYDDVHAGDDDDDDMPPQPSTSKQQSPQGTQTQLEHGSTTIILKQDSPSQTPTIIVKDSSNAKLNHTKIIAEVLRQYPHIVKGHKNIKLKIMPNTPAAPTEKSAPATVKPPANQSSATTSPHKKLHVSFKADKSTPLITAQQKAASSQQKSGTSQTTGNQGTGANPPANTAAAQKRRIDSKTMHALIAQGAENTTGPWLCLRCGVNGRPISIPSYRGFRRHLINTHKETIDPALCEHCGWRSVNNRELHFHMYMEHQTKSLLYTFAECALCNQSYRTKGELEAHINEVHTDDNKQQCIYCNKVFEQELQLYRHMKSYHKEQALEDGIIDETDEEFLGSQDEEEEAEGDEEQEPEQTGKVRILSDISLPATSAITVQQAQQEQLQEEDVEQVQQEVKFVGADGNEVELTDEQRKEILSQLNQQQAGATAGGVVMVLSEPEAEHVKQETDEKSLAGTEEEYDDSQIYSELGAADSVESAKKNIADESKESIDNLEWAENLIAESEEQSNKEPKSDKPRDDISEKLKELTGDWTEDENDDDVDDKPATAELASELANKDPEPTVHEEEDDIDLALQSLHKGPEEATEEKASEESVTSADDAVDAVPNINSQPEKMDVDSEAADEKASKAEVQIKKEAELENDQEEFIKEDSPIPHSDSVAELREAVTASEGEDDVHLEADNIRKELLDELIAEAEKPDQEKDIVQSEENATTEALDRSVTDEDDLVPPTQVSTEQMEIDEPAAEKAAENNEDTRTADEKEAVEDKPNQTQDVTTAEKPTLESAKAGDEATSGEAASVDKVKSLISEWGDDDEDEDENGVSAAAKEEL
# Molecular target: T1, CP190
# Assay: competition; unlabeled DNAS vs 2.5 nM Cy3B-DNAS, 200 nM CP190; FA/FCS: 30 mM Tris/HCl pH 7.5, 100 mM NaCl, 20 uM ZnSO4, 5 mM mercaptoethanol, 0.01 mg/ml BSA, 0.004% Tween20, 2.5 nM DNA; EMSA: 150 mM NaCl, 30 mM Tris/HCl pH
# Conditions: protein: recombinant; tags: N-term 6xHis; blunt
binder,measurement,value
DNAS (dsDNA) DNA 1: AGAAGTCAGCGCGATAGCATCGATATTTTCGTGACACGCTTGTCATCCGATAGGTAGT DNA 2: ACTACCTATCGGATGACAAGCGTGTCACGAAAATATCGATGCTATCGCGCTGACTTCT,Ki,17 ± 4 nM

# Reference: paper PMC4148193, “Chromatin Insulator Factors Involved in Long-Range DNA Interactions and Their Role in the Folding of the Drosophila Genome” (PLoS Genetics, 2014)
